Test: label from the status in PepcDB records
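Also: failed if final PepcDB status was selected cloned or expressed and not failed if soluble or beyond.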

| Sequence | protein production |
| --- | --- |
| MAGYKPVAIQTYPVLGEKITQDTLYWNNYKTPVQIKEFGAVSKVDFSPQLPYNYAVTASSRIHIYGRYSQEPVKTFSRFKDTAYCATFRQDGQLLVAGSEDGVVQLFDINGRAPLRQFEGHTKAVHTVDFTADNYHVVSGADDYTVKLWDIPNSKEILTFKEHSDYVRCGCASKLNPDLFVTGSYDHTVKIFDARTNKNVLCVEHGQPVESVLLFPSGGLLVSAGGRYVKVWDMLKGGQLLVSLKNHHKTVTCLCLSSSGQRLLSGSLDRKVKVYSTTSYKVVHSFDYAASILSLALSHQDETIVVGMTNGILSVKHRKSEAKKTSLPRRRRPAYRTFIKGKNYLKQRDDIMVSRPAKKHLEGYDKDLKSFRVSQALDRVLEPKCVIRTPEVTVSIIKELTRRGVLANALAGRDEKEVTRVLNFLIRNLSQPRFAPVLINAAEIIIDIYLPVIGQSSVVDKKFIVLQELVEKEIDYQRELLETLGMMDMLFATMTRNDSDPVPEHVPAELPEEKTESPTQPSDTDKNS | failed |
| MAHACVSTSASSLRFTAGFVSASPNGSSFDSPKLSLPFEPLRSRKTNKLVSDRKNWKNSTPKAVYSGNLWTPEIPSPQGVWSIRDDLQVPSSPYFPAYAQGQGPPPMVQERFQSIISQLFQYRIIRCGGAVDDDMANIIVAQLLYLDAVDPTKDIVMYVNSPGGSVTAGMAIFDTMRHIRPDVSTVCVGLAASMGAFLLSAGTKGKRYSLPNSRIMIHQPLGGAQGGQTDIDIQANEMLHHKANLNGYLAYHTGQSLEKINQDTDRDFFMSAKEAKEYGLIDGVIMNPLKALQPLAAA | failed |
| MAHGVNIYNVYSISIIALLASSFLLYAQEAKGLENAMLFLSIIFPYAFYLNGHILLYLVLPAYLIVTSSVTFHYYIYELIPTLIYYFGILPKFINYNVRLMTILWES | failed |
| MAHHHHHHMGGPPTIEELKREKIIPHVFPDENVDLTVDMYISFKSGKEVNHGNILDLAGTGSVPRNIKFSEEPPEDYCYILFMIDPDFPSRRRPDGRDYVHWAVSGIKSKELVKGTDKNCITLLPYVGPSIKKGTGLHRISFILSLVKEENKGNVTGVPLYRGEHYITRVKFNNCQSAYNVIQMNDMKIVGFNWCQIEA | not failed |
| MAHPFLRTIFEVVITLYMLHNLYKVLGDDEMDLEEMSSFFNKRVNEYEEHMMNNVGGANQYYIETAKLIPRGKEINILDLGCGTGLELDEIFKINNTVRVTGIDLAENMLRKIKEKHKDKLDRLTLIVGDYFSCDIGEKVFDAALSVETLHHFNHEQKIKLYKKIVRSLKDNGVYIEADYMAPNQDYEDHCFNENKRIRLELGIKDGFYHYDTPCTVENQIKMLYKSGFKSVEKVFKAENTVILLAKK | failed |
| MAHYKAADSKREQFRRYLEKSGVLDTLTKVLVALYEEPEKPNSALDFLKHHLGAATPENPEIELLRLELAEMKEKYEAIVEENKKLKAKLAQYEPPQEEKRAE | not failed |
| MAIDAFALILAMLGLGLLFARLRVLPDNSADVLNRIVLYICLPASVLTYVPRLHLDASLGGVIATPWLLTAIIVPLLWGCSRLLRFGRAEYAALLMCVVFTNSSFIGFPMVRALIGDHALPYAVVYDQFGTFVLLSTFGLYVLARYSGDTPPTARLIVMRVLQFPPLWALLFALTLMPGQPPAWIGSGLKNLADAMLPLVMLSVGFSLQLRLPADELKPLAVGLVFKLLLMPVLALPLSWVLGLRGQMLQTNVLESAMPTMITAAALAISHRLAPRLAAAMVGYSILLSLLTLPAWAWLLARLVA | failed |
| MAIERIQLHTHGDDRGLLISLEQQRNVPFEIRRVYYLFGTRHDVHRGQHAHRQLNQFAVALHGSVTILLDEGNGNGPSEVVLDDPSQGLLLGRMVWRDLYRFSADCVLMVLADQPYDPGDYILDYDQFVSEVRNGTALQARRLEA | failed |
| MAIIPGVEQKPMSSNLESRIDQGTGREPADMVLKGGRFFDLVTGELVASDIAICGDTVVGTCGDYKGRHEIDISGKIVVPGFIDTHLHIESSLVTPHEFDRCVLPYGVTTAICDPHEIANVLGAEGLQFFLDSAMETIMDIRVQLSSCVPATHLETSGADLPIEKLLPFRNHPKVIGLAEFMNFPGVIHKDPVCMAKLEAFQGQHIDGHAPLLSGAALNGYLAAGIRTEHECTSAAEALEKIRKGMHILVREGSVSKDLHALMPIITERLSPYLALCTDDRNPLDIAEQGHLDYMIRTAIASGVEPLAIYRAASISAAKAFGLRDRGLVAPGWRADLVVIDTLQNCKASMVLSGGRLVDDALFATRKPVAPVGLDSVKARPVLASHFGVPVTEGETPVMGVLPGKIITEHRRYKLPTDGNQTTVDLENDIIKVAVIERHGKNGNHANGFVQGFGLKKGAIASTVGHDSHNICVVGVSEDDMALAANRLGDIKGGFVVVEDGRVTGEIALPVAGLMSLEPYETVRDTLHTLRKAAYALGTTLEEPFLQVAFLPLPVIPHLKISDMGMVDVDRFALI | failed |
| MAIKLSSIDQFEQVIEENKYVFVLKHSETCPISANAYDQFNKFLYERDMDGYYLIVQQERDLSDYIAKKTNVKHESPQAFYFVNGEMVWNRDHGDINVSSLAQAEE | not failed |
| MAILEYIMLLFIGLIAGTVGSLVGLGGGIIIVPLLIGLHSLSPQLAVGTSMVTVVFTGLSSTLTYMKHKRVDYKSGLILFIGSGPGGIIGSWANKFLNQDTFSLYFGIFLIFVSILLMLRDKLKPLSLSNTSVIKRSFTDNDGNTVHYQFPPFLAIFIAFIVGFISGLFGIGGGALLVPAMMLLFAFPAHIAVATSMFIVFLSAIVSSATHISLGNVSWIYALILIPGAWIGGKIGAYINTKLSGNAVINLLRITLIILGTRLIIISLL | failed |
| MAILFAVVARGTTILAKHAWCGGNFLEVTEQILAKIPSENNKLTYSHGNYLFHYICQDRIVYLCITDDDFERSRAFNFLNEIKKRFQTTYGSRAQTAPPYAMNSEFSSVLAAQLKHHS | not failed |
| MAIMASRKHLKRFKSPVHWPIHPKEYKWTVKPSPGPHAIENSLPLMIIVRDILKVADNAREARKIINSGEVLVDGRPRKNYKFPVGFMDVVSIPRTGDVYRVLPDERGRLVLHPIDEENAGFKLCKIVNKTTIKGGRTQLNLHDGRNYLSDDEFRVGDVVKLSIPEQEILERIPFEKDSLGLVTGGRHTGEIGKIKKINITRSSMPNTAVIETGAGKTFLTLKDYVFVIGKDESVISLPGGKLEHHHHHH | failed |
| MAINLTPLIGFLPEFIISAIISGFLFQAITNDKTFVRPIIGGKKPEQKSILKKVSSRRKPVDMKEYERMKNKTRYQALLFNSNMHIISSSALTVSAWILLIYAMIGIGKSSIFMPTFGFKINFIVYALLVIIFSVAMISSFSQVVRLREIYRIIASVFAVLSVVIFFEIPAMKWLFYIFPKVIVSYIFIYFAGLFILFLCYSLWWKLAPKITFYVSFYSSILTYFAIVSLMIYNSIPKL | failed |
| MAINRSSDHESDENTRLYHPYQNYQVPIKSQYLYKLPTSPEFLFTEESLKQRRSWGENLTFYTGTGYLAGSVAGASAGIFSGIKSFENGDTTKLKINRILNSSGQAGRTWGNRVGIVGLIYAGIESGVVAVTDKDDVWTSVVAGLGTGAVFRAARGVRSAAVAGAFGGIAAGAVVAGKQVFKRDPERGSITLDP | failed |
| MAIQGSRTEGLGGYTFDDLAVVMGTYNEEEAIGTVLDDIATVTDGRAEVICVDGSSDRTPEIARDHGATVIEQEPQGYGVAVREAVLTPDRPVVVTTDCDDTYPMERLPDFLAEINDGADVVSGDRLYYGAEQMPAMNKLGNELFALLASVLMGKRVHDTTTGMRAYRREVLQKIVWTENTGLSAELLMRPLMRGYDVRERPIEYDERKGETKLDPFSGGAAIAKSIVRVALEERFRLEHHHHHH | not failed |
| MAITVSIELNRDLEIPASYDEVFDLLADVPKSASHFPKVDKLVDLGNNAYRWEMEKVGVDKHAIQSVYACTYHADKEAGKITWSPIKGEGNGVVSGSWTLSAKGDNATAVKFQTSAELTVPLPSLLKLAISPVIKHEFNSLVDTYMANLKKAFLEHHHHHH | not failed |
| MAIYTVKALITDPIDEILIKTLREKGIQVDYMPEISKEELLNIIGNYDIIVVRSRTKVTKDVIEKGKKLKIIARAGIGLDNIDTEEAEKRNIKVVYAPGASTDSAVELTIGLMIAAARKMYTSMALAKSGIFKKIEGLELAGKTIGIVGFGRIGTKVGIIANAMGMKVLAYDILDIREKAEKINAKAVSLEELLKNSDVISLHVTVSKDAKPIIDYPQFELMKDNVIIVNTSRAVAVNGKALLDYIKKGKVYAYATDVFWNEPPKEEWELELLKHERVIVTTHIGAQTKEAQKRVAEMTTQNLLNAMKELGMI | not failed |
| MAKAAKRFRTPSTTRVLYVRHAHAHGRQTWGGDDNKRPLDKKGRRQAEMLVPMLLPFKPTAIYSAVPDRCQATALPLADELGLDVSVNRLFGDDAWETDPEACKKRFTDVVAQGGVPMIVGQGDIIPEMIKWFSENGTLPIDEKIKAKKGSVWVLSFHDGVFTGADYLEHHHHHH | failed |
| MAKALEQPFDVANIPGPKMATLLEKGKPVANMIKKAKRPLLIVGPDMTDEMFERVKKFVEKDITVVATGSAITRFIDAGLGEKVNYAVLHELTQFLLDPDWKGFDGQGNYDLVLMLGSIYYHGSQMLAAIKNFAPHIRALAIDRYYHPNADMSFGNLWKKEEDYLKLLDEILAEL | not failed |
| MAKAMELWVGEMKKMSEKINTRNPLMQRKNSTSVVSKQQQGSEEERGLINQKIREKNEAVTMSELTVCLLMDRFVPW | failed |
| MAKENEHFLKPDNQSPEESEQLDTVSMEPSQEIWNSTEQETSELQSDTFLSPATVRNSQTTDGYGQAEIVPATPSFMSAAGDSEEVGTPGRSLSEVFSASSLGQRSTRAADRESLQRHELGTNSFSLFSPEKEISFRNRKELEAPSGAAEEIERRVIWGTNVNVDECEQKIKKFLYEFTATTVQQDYEDGDGLQQAKPKPYYLELLTHANEMQYEVINIDLQHVFEFDSELYAYVVTYPTELIAIFDQTLQEVCKEMFATDDSSDIMSSGTSNFHAGRLITRMYNMKDTEIHSMREIDPSHIHQMIGVRGMVVRCSSVIPNMNRAFYSCNNCHWSLFVDIQRGKIEEPIQCDKCQARNSFMLIHNRSVFSDKQMIRIQETPETVPQGETPATMTIVAYDSLVDSARPGDQIEVTGILRAVSVRINPKQRSIRSVFRTYIDAIHILKGKQGRLSNSTEHMDTTSDYYPIGSDTSENALYYFERERSIREISQDPLLYDKLSRSIAPSIYGHEDLKKGILLQLFGGTRKDFSASGGGHFRSDIHVLLVGDPGTSKSLFLQYVHRIAPRGLYTSGRGSSAVGLTAYVTRDPDSNDMVLESGALVLSDKGICCIDEFDKMTDSTRSILHEAMEQQTVSIAKAGIICSLNARTSVLAAANPVESRYNPKLSVVDNIQLPPTLLSRFDLIYLILDNANPEEDKRLGNHITSLFSADTAVVHSDEDPLPSLEPATIHMPNSSHSFLDSTTLASYISYAREKVHPKLNDDAVQRLTKGYVEMRRMGNASKSWSGGIKTITATPRQLESLIRLSEAHAKMRLSDVVESQDVDEALRLVQVAMQQSAIDPITGTIDMDLITTGKSATKRSRIAKLGEAIFQYLQQTKTSDTAVRTSDVLMEVKRSSSMPFTEQDFDDAIHYLVEEERIFRVAGGLRVGTSW | failed |
| MAKGDQYQAHTEKYHDKKSKKSYKPVWIIISFIILITILLLPTPAGLPVMAKAALAILAFAVVMWVTEAVTYPVSATLILGLMILLLGLSPVQDLSEKLGNPKSGDIILKGSDILGTNNALSHAFSGFSTSAVALVAAALFLAVAMQETNLHKRLALLVLSIVGNKTRNIVIGAILVSIVLAFFVPSATARAGAVVPILLGMIAAFNVSKDSRLASLLIITAVQAVSIWNIGIKTAAAQNIVAINFINQNLGHDVSWGEWFLYAAPWSIIMSIALYFIMIKFMPPEHDAIEGGKELIKKELNKLGPVSHREWRLIVISVLLLFFWSTEKVLHPIDSASITLVALGIILMPKIGVITWKGVEKKIPWGTIIVFGVGISLGNVLLKTGAAQWLSDQTFGLMGLKHLPIIATIALITLFNILIHLGFASATSLASALIPVFISLTSTLNLGDHAIGFVLIQQFVISFGFLLPVSAPQNMLAYGTGTFTVKDFLKTGIPLTIVGYILVIVFSLTYWKWLGLV | failed |

From a protein production outcome set (Wang et al. 2014)
